Results: publication PMC3226628, “The Golgi Localization of GOLPH2 (GP73/GOLM1) Is Determined by the Transmembrane and Cytoplamic Sequences” (PLoS ONE, 2011)

Experiments:
[1] = molecular target: the molecule itself; test: SDS-PAGE under non-reducing and reducing conditions; purified GOLPH2-Δ(1–55) and cysteine mutants boiled with 0 to 100 mM 2-mercaptoethanol, 10% SDS-PAGE; shows disulfide-linked oligomers
[2] = molecular target: the molecule itself; test: native gel or EMSA; native-PAGE of purified GOLPH2-Δ(1–55) and cysteine mutants, loaded directly or boiled with 2% SDS and 140 mM 2-mercaptoethanol; BSA monomer, dimer and tetramer as markers
[3] = molecular target: the molecule itself; test: SDS-PAGE under non-reducing conditions with immunoblot; lysates of HeLa cells 36 h after transfection with pCR3.1-GOLPH2-FLAG or mutants; immunoblot with FLAG antibody

B1: GOLPH2-Δ(1–55) (domain or fragment, human, UniProt Q8NBJ4 56-401, looked up)
chain: AAAERGAVELKKNEFQGELEKQREQLDKIQSSHNFQLESVNKLYQDEKAVLVNNITTGERLIRVLQDQLKTLQRNYGRLQQDVLQFQKNQTNLERKFSYDLSQCINQMKEVKEQCEERIEEVTKKGNEAVASRDLSENNDQRQQLQALSEPQPRLQAAGLPHTEVPQGKGNVLGNSKSQTPAPSSEVVLDSKRQVEKEETNEIQVVNEEPQRDRLPQEPGREQVVEDRPVGGRGFGGAGELGQTPQVQAALSVSQENPEMEGPERDQLVIPDGQEEEQEAAGEGRNQQKLRGEDDYNMDENEAESETDKQAALAGNDRNIDVFNVEDQKRDTINLLDQREKRNHTL
notes: Golgi phosphoprotein 2 (GOLPH2, GP73, GOLM1), human, residues 1-55 deleted; C-terminal luminal region, amino acids 56-401; also called purified wild-type GOLPH2; GOLPH2-Δ(1–55) fusion protein; source: E. coli BL21 (DE3), pET22b(+), purified (Ni-NTA)
binding result [1]: binds

B2: GOLPH2-Δ(1–55) C170A (domain or fragment, human, UniProt Q8NBJ4 56-401, looked up)
chain: AAAERGAVELKKNEFQGELEKQREQLDKIQSSHNFQLESVNKLYQDEKAVLVNNITTGERLIRVLQDQLKTLQRNYGRLQQDVLQFQKNQTNLERKFSYDLSQCINQMKEVKEQAEERIEEVTKKGNEAVASRDLSENNDQRQQLQALSEPQPRLQAAGLPHTEVPQGKGNVLGNSKSQTPAPSSEVVLDSKRQVEKEETNEIQVVNEEPQRDRLPQEPGREQVVEDRPVGGRGFGGAGELGQTPQVQAALSVSQENPEMEGPERDQLVIPDGQEEEQEAAGEGRNQQKLRGEDDYNMDENEAESETDKQAALAGNDRNIDVFNVEDQKRDTINLLDQREKRNHTL
notes: GOLPH2 (GP73, GOLM1), human, residues 1-55 deleted (amino acids 56-401), C170A; also called single mutant C170A; source: E. coli BL21 (DE3), pET22b(+), purified (Ni-NTA)
binding result [1]: binds

B3: GOLPH2-Δ(1–55) C159A (domain or fragment, human, UniProt Q8NBJ4 56-401, looked up)
chain: AAAERGAVELKKNEFQGELEKQREQLDKIQSSHNFQLESVNKLYQDEKAVLVNNITTGERLIRVLQDQLKTLQRNYGRLQQDVLQFQKNQTNLERKFSYDLSQAINQMKEVKEQCEERIEEVTKKGNEAVASRDLSENNDQRQQLQALSEPQPRLQAAGLPHTEVPQGKGNVLGNSKSQTPAPSSEVVLDSKRQVEKEETNEIQVVNEEPQRDRLPQEPGREQVVEDRPVGGRGFGGAGELGQTPQVQAALSVSQENPEMEGPERDQLVIPDGQEEEQEAAGEGRNQQKLRGEDDYNMDENEAESETDKQAALAGNDRNIDVFNVEDQKRDTINLLDQREKRNHTL
notes: GOLPH2 (GP73, GOLM1), human, residues 1-55 deleted (amino acids 56-401), C159A; also called single mutant C159A; source: E. coli BL21 (DE3), pET22b(+), purified (Ni-NTA)
binding result [2]: binds

B4: GOLPH2-Δ(1–55) C159A-C170A (domain or fragment, human, UniProt Q8NBJ4 56-401, looked up)
chain: AAAERGAVELKKNEFQGELEKQREQLDKIQSSHNFQLESVNKLYQDEKAVLVNNITTGERLIRVLQDQLKTLQRNYGRLQQDVLQFQKNQTNLERKFSYDLSQAINQMKEVKEQAEERIEEVTKKGNEAVASRDLSENNDQRQQLQALSEPQPRLQAAGLPHTEVPQGKGNVLGNSKSQTPAPSSEVVLDSKRQVEKEETNEIQVVNEEPQRDRLPQEPGREQVVEDRPVGGRGFGGAGELGQTPQVQAALSVSQENPEMEGPERDQLVIPDGQEEEQEAAGEGRNQQKLRGEDDYNMDENEAESETDKQAALAGNDRNIDVFNVEDQKRDTINLLDQREKRNHTL
notes: GOLPH2 (GP73, GOLM1), human, residues 1-55 deleted (amino acids 56-401), C159A and C170A; Monomer on non-reducing SDS-PAGE, same migration as the wild type on native-PAGE; also called double mutant C159A–C170A; source: E. coli BL21 (DE3), pET22b(+), purified (Ni-NTA)
binding result [2]: binds

B5: GOLPH2-FLAG (wild-type, full length) (natural protein, human, UniProt Q8NBJ4 1-401, looked up)
chain: MMGLGNGRRSMKSPPLVLAALVACIIVLGFNYWIASSRSVDLQTRIMELEGRVRRAAAERGAVELKKNEFQGELEKQREQLDKIQSSHNFQLESVNKLYQDEKAVLVNNITTGERLIRVLQDQLKTLQRNYGRLQQDVLQFQKNQTNLERKFSYDLSQCINQMKEVKEQCEERIEEVTKKGNEAVASRDLSENNDQRQQLQALSEPQPRLQAAGLPHTEVPQGKGNVLGNSKSQTPAPSSEVVLDSKRQVEKEETNEIQVVNEEPQRDRLPQEPGREQVVEDRPVGGRGFGGAGELGQTPQVQAALSVSQENPEMEGPERDQLVIPDGQEEEQEAAGEGRNQQKLRGEDDYNMDENEAESETDKQAALAGNDRNIDVFNVEDQKRDTINLLDQREKRNHTL
notes: Golgi phosphoprotein 2 (GOLPH2, GP73, GOLM1), human, full-length cDNA from Huh7 cells; also called pCR3.1-GOLPH2-FLAG; wild-type GOLPH2; source: HeLa, transfected, in lysate; not shown: FLAG, C-terminal, kept
stoichiometry N [3]: 2
